Structures are written as SMILES. *1 amine or outer side, *2 acyl side, *3 side chain or, on linkers, in order; H or OH if unused. Where a SMILES comes first, the peptide text is derived from it. Bridges are numbered along the chain shown (N, C = ends). Roman numbers before positions name the chains, in order. [ ]: non-standard residue; d: D form. The star is where a group is joined. X2 = O=C(CCCCCN1C(=O)CC([*:2])C1=O)NCCOCCOCCOCCOCCOCCOCCOCCOCCC(=O)[*:1]; Hexanoyl(6-succinimido-3yl) = O=C1CC([*:1])C(=O)N1CCCCCC(=O)[*:2]; Dolaproine = CO[C@@H]([C@@H]1CCCN1)[C@@H](C)C(=O)O; Dil = CC[C@H](C)[C@H](NC)[C@@H](CC(=O)O)OC; PABC = O=C(OCc1ccc(N[*:1])cc1)[*:2]; X1 = C[C@@H](N*)[C@@H](O)c1ccccc1; Cit = NC(=O)NCCC[C@H](N)C(=O)O; NMeV = CN[C@H](C(=O)O)C(C)C; AEA = NCCOCC(=O)O

One data set deals with tubulin. Conditions: cited from earlier work. From the text: In the progression of cancers, a matrix metalloproteinase (MMP) remodeling of the extracellular tumor environment is essential for invasion and metastases. The fundamental role that MMPs play in tumor spread has made them a focus for developing new cancer therapies. While inhibitors to MMPs have been developed, pharmacologically blocking MMPs has not proven effective in patients. Alternative to enzymatic inhibition, tumor MMP activity can be therapeutically co-opted for targeting drug delivery. An example of this strategy involves cloaking cell-penetrating peptide–drug c ...

Data set [1] is described as follows: Tissue drug measurement (MMAE biodistribution) after IV cRGD-ACPP-MMAE. Format: in vivo. The note with it: mice with HCT116 xenografts, 10 nmoles IV. As for the experimental part:
To determine tissue specificity and the kinetics of ACPP targeting in human and murine tumor model systems, we used complementary approaches, measuring drug concentrations in harvested tissues and non-invasive fluorescence whole-animal imaging. First, the pharmacokinetics of cRGD-ACPP-MMAE drug accumulation were measured in tumor and normal tissues from mice with human HCT116 xenografts. Tumor-bearing mice were intravenously (IV) injected with cRGD-ACPP-MMAE (Figure 3A). Blood, tumor, and normal tissues (heart, kidney, liver, and muscle) were collected 2, 6, and 24 h after IV injection and assayed for MMAE by LC–MS/MS (Figure 3C). […] To determine the spatial specificity of ACPP drug delivery, normal muscle tissue adjacent to the tumor xenograft was harvested.
Mice with established subcutaneous HCT116 tumors were intravenously injected through the tail vein with 10 nmoles of cRGD-ACPP-MMAE. Tumors, blood, and normal tissues were harvested at indicated time points and homogenized in 10 volumes of PBS with a point sonicator (amplitude range 5–15%). Homogenates were centrifuged ([…], 10 min) with supernatants collected and diluted 2-fold by the addition of 2% acetic acid in acetonitrile, followed by centrifugation (14× g, 10 min). MMAE concentration was measured by using LC–MS/MS with a Luna-2 C18 column (Phenomenex, Torrance, CA, USA) and Agilent Trap XCT mass spectrophotometer (Agilent), with extracted ion currents at 686.4 and 506.4 integrated and combined to improve sensitivity. Ion currents were fitted to a standard curve to determine tissue drug concentrations.

Data set [2] can be described thus: Mouse body weights in the therapy studies (safety and tolerability). The data set is classed as in vivo, mice. The note with it: LL2 and B16 therapy studies, total 40 nmoles IV, weighed weekly.
Method: To assess the safety and tolerability of systemically administered ACPP-MMAE conjugate, mice weights were measured weekly in the two therapy studies above.
(A) Mice bearing LL2 tumors IV injected with vehicle (untreated) or cRGD-ACPP-MMAE (20 nmoles on days 4 and 6). Individual tumor volumes plotted, left panel. Average tumors volumes on day 18 plotted as mean ± SEM, right panel (n = 10 for untreated, n = 6 for cRGD-ACPP-MMAE). Statistical significance calculated using two-tailed t testing. (B) Mice bearing B16 tumors IV injected with vehicle (untreated) or cRGD-ACPP-MMAE (20 nmoles on days 3 and 5). Individual tumor volumes plotted, left panel. Average tumors volumes on day 19 plotted as mean ± SEM, right panel (n = 10 for untreated, n = 6 for cRGD-ACPP-MMAE). Statistical significance calculated using two-tailed t testing. (C) Mouse body weights of mice from experiments in (A,B), plotted as mean fractional body weight ± SEM.
LL2 and B16 tumor cells were injected subcutaneously into the hindlimbs of 6-week-old female C57BL/6 albino mice in 100 µL of 1:1 Growth Factor Reduced Matrigel (BD) and PBS solution. […] Tumor volumes were measured and calculated using the formula as ½ × Length × Width^2. Body weights were measured weekly to assess general animal health.

Regarding `CC[C@H](C)[C@@H]([C@@H](CC(=O)N1CCC[C@H]1[C@H](OC)[C@@H](C)C(=O)N[C@H](C)[C@@H](O)c1ccccc1)OC)N(C)C(=O)[C@@H](NC(=O)[C@@H](NC)C(C)C)C(C)C` [MMAE, Monomethyl auristatin E] (H-[NMeV]V[Dil][Dolaproine]-X1), the “potency for mitotic arrest and cell death” value with tubulin is given as “single nanomolar range”.

Regarding `CC[C@H](C)[C@@H]([C@@H](CC(=O)N1CCC[C@H]1[C@H](OC)[C@@H](C)C(=O)N[C@H](C)[C@@H](O)c1ccccc1)OC)N(C)C(=O)[C@@H](NC(=O)[C@H](C(C)C)N(C)C(=O)OCc1ccc(NC(=O)[C@H](CCCNC(N)=O)NC(=O)[C@@H](NC(=O)CCCCCN2C(=O)CC(SC[C@@H](NC(=O)[C@@H](CCCNC(=N)N)NC(=O)[C@@H](CCCNC(=N)N)NC(=O)[C@@H](CCCNC(=N)N)NC(=O)[C@@H](CCCNC(=N)N)NC(=O)[C@@H](CCCNC(=N)N)NC(=O)[C@@H](CCCNC(=N)N)NC(=O)[C@@H](CCCNC(=N)N)NC(=O)[C@@H](CCCNC(=N)N)NC(=O)[C@@H](CCCNC(=N)N)NC(=O)CNC(=O)[C@H](C)NC(=O)[C@H](CSC)NC(=O)CNC(=O)[C@H](CC(C)C)NC(=O)[C@@H]3CCCN3C(=O)COCCNC(=O)[C@@H](CCC(=O)O)NC(=O)[C@@H](CCC(=O)O)NC(=O)[C@@H](CCC(=O)O)NC(=O)[C@@H](CCC(=O)O)NC(=O)[C@@H](CCC(=O)O)NC(=O)[C@@H](CCC(=O)O)NC(=O)[C@@H](CCC(=O)O)NC(=O)[C@@H](CCC(=O)O)NC(=O)[C@@H](CCC(=O)O)NC(=O)CCOCCOCCOCCOCCOCCOCCOCCOCCNC(=O)CCCCCN3C(=O)CC(SC[C@@H]4NC(=O)[C@@H](Cc5ccccc5)NC(=O)[C@H](CC(=O)O)NC(=O)CNC(=O)[C@H](CCCNC(=N)N)NC4=O)C3=O)C(N)=O)C2=O)C(C)C)cc1)C(C)C` (some centres unmarked) [cRGD-ACPP-MMAE, cyclo(RGD)fc-MC-HN-peg8-e9-oPLGC(Me)AG-r9-c-(MC-VC-PABC-MMAE)-CONH2] (I: [dE][dE][dE][dE][dE][dE][dE][dE][dE][AEA]PLGC(Me)AG[dR][dR][dR][dR][dR][dR][dR][dR][dR][dC]-NH2 / II: V[Cit][PABC][NMeV]V[Dil][Dolaproine]-X1 / III: cyclo(RGD[dF]C); linker I:26-II:N via Hexanoyl(6-succinimido-3yl); linker I:N-III:5 via X2), the “tissue with highest MMAE level at 2 h” value in data set [1] (2 h, LC-MS/MS) is “the kidneys had the highest levels of MMAE”. Moreover, the “tumor MMAE concentration versus peri-tumoral muscle by 6 h” value in data set [1] (6 h, LC-MS/MS) is given as “higher than the surrounding normal muscle tissue”. Moreover, the “tumor MMAE versus normal tissues at 24 h post-injection” value in data set [1] (24 h, LC-MS/MS, one-way ANOVA with Tukey) is on record as “significantly higher than all normal tissues assayed”. For the same compound, in data set [1] (LC-MS/MS), the “MMAE concentration in normal tissues after 6 h post-drug delivery” value is “rapid decrease” and the “tumor MMAE concentration over 24 h post-injection” value is given as “remained relatively constant”. Also, the “time of peak MMAE concentration in all normal tissues (heart, kidney, liver, muscle)” value in data set [1] (tissues collected 2, 6, 24 h, MMAE by LC-MS/MS) amounted to 2 h. In data set [2], the “mouse body weights, control versus treated” value was “no significant difference”.

The values are drawn from paper PMC11643828, “Tumor-Targeted Cell-Penetrating Peptides Reveal That Monomethyl Auristatin E Temporally Modulates the Tumor Immune Microenvironment” (Molecules, 2024).
